Measured values as given in the supplement of paper PMC9732359.
± gives the uncertainty stated by the source.

Assay: protein stability index of a GFP-peptide fusion (yeast GPS) (PSI 1-4); higher = more stable; sorted into four equal gates, so the index is relative within each strain
Summary of the method: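 Plasmids in a pooled yeast library fused tiled 17-residue yeast protein peptides downstream of GFP and also expressed Cherry. Mid-log cultures grown without leucine were sorted into four equal gates by GFP/Cherry fluorescence ratio. Each gate's plasmids were PCR-amplified and Illumina-sequenced, and reads were matched to strains by barcodes. The protein stability index is derived by multiplying each gate's read frequency by its gate number and summing the results.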

Sequence | protein stability index (doa10∆) | protein stability index (pdr5∆) | protein stability index (san1∆) | protein stability index (ubr1∆)
EVESSDTIDNVKSKIQD [RPS31] | 3.11 ± 0.21 | 2.78 ± 0.17 | 3.12 ± 0.1 | –
QKYVGEGARMVRELFEM [RPT1] | – | – | – | 2.92 ± 0.24
SAIRQVFERFKTKILEV [IRR1] | 1.87 ± 0.045 | 2.03 ± 0.06 | 1.71 ± 0.07 | 2.26 ± 0.05
PSKSQTNFKEEITDASL [YML103C/NUP188] | 2.93 ± 0.15 | 3.13 ± 0.11 | 3.02 ± 0.18 | 2.92 ± 0.18
TITNSSSSSDIIVPDLI [YML103C/NUP188] | 2.87 ± 0.081 | 3.07 ± 0.052 | 2.83 ± 0.061 | 3.05 ± 0.056
NDNEDDDEEYDYNDVEV [BRR2] | 3.28 ± 0.077 | 3.22 ± 0.079 | 3.34 ± 0.06 | 3.4 ± 0.052
ANNNMNDELVELLANKC [GRR1] | 2.79 ± 0.061 | 2.92 ± 0.044 | 2.78 ± 0.059 | 2.99 ± 0.046
IQYVTYLLTQQQIWKSP [SOH1] | 2.16 ± 0.056 | 2.07 ± 0.057 | 1.71 ± 0.074 | 2.09 ± 0.047
AKKRRPAAKGKNLSFKR [RRP6] | 2.9 ± 0.12 | 2.92 ± 0.09 | 2.67 ± 0.095 | 2.81 ± 0.085
NDRESVLTNIEVYRTSL [SMC3] | 2.94 ± 0.13 | 3.21 ± 0.15 | 3.05 ± 0.12 | 2.97 ± 0.081
RLEFDQDRDRFFLRDTL [SNF5] | 3.07 ± 0.061 | 3.38 ± 0.065 | 3.06 ± 0.048 | 3.4 ± 0.061
LSLHENYPQDEINAVFN [POP1] | 2.97 ± 0.067 | 3.11 ± 0.056 | 3.05 ± 0.04 | 3 ± 0.059
LKTVLHNGRDKIQFHIH [RGR1] | 1.49 ± 0.047 | 1.49 ± 0.05 | 1.41 ± 0.074 | 1.39 ± 0.048
NVLNRIQELEDQRDELL [ITC1] | 3.39 ± 0.12 | 3.15 ± 0.085 | 3.5 ± 0.077 | 3.56 ± 0.12
FFLGYMINRLLLCALDR [RPB2] | 1.51 ± 0.17 | – | – | 1.68 ± 0.12
YFKSILLNKNTGNNLYD [SWI1] | 2.59 ± 0.048 | 2.42 ± 0.036 | 2.04 ± 0.05 | 2.19 ± 0.031
RKRKCGHTNQLRPKKKL [RPL40A] | 2.84 ± 0.035 | 2.95 ± 0.032 | 3.017 ± 0.024 | 3.033 ± 0.026
YISLLKLQGLYENIPIY [YDL116W/NUP84] | 1.67 ± 0.06 | 1.42 ± 0.045 | 1.59 ± 0.12 | 1.25 ± 0.041
AKNIISNVLDGNKNQFE [LRP1] | 2.46 ± 0.056 | 2.77 ± 0.049 | 2.92 ± 0.045 | 3.23 ± 0.049
DTFRWVGKKSAPEKDIW [RPO31] | 2.79 ± 0.095 | 2.88 ± 0.11 | 2.9 ± 0.067 | 3.15 ± 0.061
LVQLEPHLFVNGDLTVS [SSN2] | 1.77 ± 0.1 | 1.9 ± 0.069 | 1.53 ± 0.16 | 1.5 ± 0.16
MKYLAAYLLLNAAGNTP [RPP2A] | 1.88 ± 0.031 | 2.05 ± 0.033 | 1.9 ± 0.05 | 2.32 ± 0.036
SSVMSSPRVEKRSFSST [YOR098C/NUP1] | 2.75 ± 0.057 | 2.23 ± 0.041 | 2.44 ± 0.052 | 2.54 ± 0.039
TRKAARPQKLRASLVPG [RPL6A] | 1.47 ± 0.21 | 1.5 ± 0.12 | – | 2 ± 0.12
ERNAFLSDYEVLKFLTD [RPC17] | 3.44 ± 0.096 | 3.04 ± 0.087 | 3.28 ± 0.05 | 3.05 ± 0.086
GAINVANCQRQLTEFWT [NNF1] | 3.2 ± 0.16 | 2.76 ± 0.13 | 2.71 ± 0.21 | –
VKIMRDPAKSRTGPKAL [RPS3] | 3.35 ± 0.21 | 3.33 ± 0.12 | 3.06 ± 0.1 | 3.52 ± 0.11

Sequence | protein stability index (doa10∆) | protein stability index (pdr5∆) | protein stability index (san1∆) | protein stability index (ubr1∆)
ENGTHNDEVNEDEEDDN [YCG1] | 3.42 ± 0.1 | 3.23 ± 0.12 | 3.54 ± 0.11 | 3.49 ± 0.14
FVRQAAMIALSMILIQQ [RPN2] | 1.35 ± 0.083 | 1.75 ± 0.17 | 1.48 ± 0.19 | 1.82 ± 0.14
GESTVESEKLVTPEDVM [RPC82] | 3.15 ± 0.09 | 3.25 ± 0.12 | 3.15 ± 0.11 | –
KKSKLISLYLLNLLSQN [RPN12] | 1.31 ± 0.057 | 1.97 ± 0.062 | 1.26 ± 0.094 | 1.84 ± 0.046
FNAGSNPPSYQSSEDVI [RPB7] | 2.83 ± 0.24 | 2.67 ± 0.21 | 2.72 ± 0.27 | 2.65 ± 0.14
PNVSDKYYLEESNVNDS [NUT1] | 3.2 ± 0.26 | 2.85 ± 0.15 | 3.21 ± 0.096 | 3.17 ± 0.14
SQSLTSILVIVQKILPL [SWI1] | 1.38 ± 0.041 | 1.39 ± 0.035 | 1.48 ± 0.066 | 1.61 ± 0.033
RAASAKIESSVESQFSA [RPS8A] | 3.11 ± 0.09 | 3.31 ± 0.083 | 2.53 ± 0.13 | 3.45 ± 0.14
SLCTVWKPNPSYDVENV [SRB5] | 2.47 ± 0.097 | 2.03 ± 0.098 | 2.08 ± 0.19 | 1.84 ± 0.082
QNIAQSSNQSAPVETKK [HRT1] | 3.01 ± 0.11 | 2.91 ± 0.14 | 3.47 ± 0.15 | 3.16 ± 0.067
DESDTISFRSNLLKNFI [SNF6] | 2.04 ± 0.084 | 2.55 ± 0.12 | 2.58 ± 0.15 | 2.41 ± 0.079
DSNESDDDVTPSTKVAS [YLR335W/NUP2] | 3.46 ± 0.16 | 3.13 ± 0.15 | 3.26 ± 0.088 | 3.54 ± 0.12
IRAELLNDRKVLFAAYK [RPB11] | 2.18 ± 0.081 | 2.19 ± 0.063 | 2.45 ± 0.098 | 2.23 ± 0.061
GRNGSNGNDESSEYETI [NUT1] | 3.13 ± 0.13 | 3.34 ± 0.11 | 3.09 ± 0.086 | 3 ± 0.12
KDLVKNNVSFNAKDIQI [FAS1] | 2.46 ± 0.041 | 2.62 ± 0.061 | 2.69 ± 0.07 | 2.71 ± 0.043
KYLEQVLDHQRAIPFRR [RPL17A] | 2.52 ± 0.059 | 2.35 ± 0.055 | 1.61 ± 0.083 | 1.78 ± 0.043
VNQTGSTKKDTVQLTFL [YCG1] | 3.05 ± 0.29 | 3 ± 0.16 | – | 2.9 ± 0.16
KIKDNKEKIKNNRQLPY [RPT5] | 3.23 ± 0.12 | 3.24 ± 0.16 | 3.18 ± 0.1 | 2.86 ± 0.1
NALEHKYFTESDIPVSE [SSN3] | 2.3 ± 0.081 | 2.75 ± 0.11 | 2.76 ± 0.082 | 2.94 ± 0.096
KEYQCSAVIIDEFKDIT [YIL149C/MLP2] | 2.46 ± 0.065 | 2.75 ± 0.065 | 2.35 ± 0.055 | 2.88 ± 0.044
STSENKISEGSAKPTFS [YOR098C/NUP1] | 3.63 ± 0.18 | 2.52 ± 0.26 | 2.8 ± 0.14 | 3.17 ± 0.097
GVVVLRDREPKEPVALI [RPN2] | 3.5 ± 0.1 | 3.21 ± 0.11 | 3.45 ± 0.076 | 3.41 ± 0.29
KDAISFIKEIHKSIELI [YCS4] | 2 ± 0.066 | 2.81 ± 0.065 | 3.17 ± 0.055 | 2.69 ± 0.037
LLLDNGFNMKKITTSTE [SRP68] | 2.19 ± 0.18 | 2.22 ± 0.091 | 3.05 ± 0.17 | 2.88 ± 0.1
SKDLRSVWKPIAAIIGR [IRR1] | 2.56 ± 0.06 | 2.15 ± 0.032 | 2.75 ± 0.049 | 2.58 ± 0.038
IFDGNYGESDIHFREHQ [YMR129W/POM152] | 3.26 ± 0.11 | 3.21 ± 0.21 | 3.58 ± 0.2 | 3.05 ± 0.15
